# B1: component A (compA) protein (I53-50A) fused to RSV antigen (protein)
# chain: MEELFKKHKIVAVLRANSVEEAIEKAVAVFAGGVHLIEITFTVPDADTVIKALSVLKEKGAIIGAGTVTSVEQCRKAVESGAEFIVSPHLDEEISQFCKEKGVFYMPGVMTPTELVKAMKLGHTILKLFPGEVVGPQFVKAMKGPFPNVKFVPTGGVNLDNVCEWFKAGVLAVGVGSALVKGTPDEVREKAKAFVEKIRGCTE
# Biological target: component B (compB) protein (I53-50B)
# Experiment: SEC-HPLC after sub-surface pipette addition and orbital agitation overnight
protein,measurement,value
B1,VLP assembly peak (% by HPLC),formation of the VLP assembly (50%)

# — US20230227790
